Our source for the OD450 (Normalised to BSA) values is patent US20220363738A1.

Sequence of purified fragment of human Calnexin containing Amino acid 1-481 fused to human FC region (FC-CNX) (human) (P27824 21-481 limits assumed, form in doubt): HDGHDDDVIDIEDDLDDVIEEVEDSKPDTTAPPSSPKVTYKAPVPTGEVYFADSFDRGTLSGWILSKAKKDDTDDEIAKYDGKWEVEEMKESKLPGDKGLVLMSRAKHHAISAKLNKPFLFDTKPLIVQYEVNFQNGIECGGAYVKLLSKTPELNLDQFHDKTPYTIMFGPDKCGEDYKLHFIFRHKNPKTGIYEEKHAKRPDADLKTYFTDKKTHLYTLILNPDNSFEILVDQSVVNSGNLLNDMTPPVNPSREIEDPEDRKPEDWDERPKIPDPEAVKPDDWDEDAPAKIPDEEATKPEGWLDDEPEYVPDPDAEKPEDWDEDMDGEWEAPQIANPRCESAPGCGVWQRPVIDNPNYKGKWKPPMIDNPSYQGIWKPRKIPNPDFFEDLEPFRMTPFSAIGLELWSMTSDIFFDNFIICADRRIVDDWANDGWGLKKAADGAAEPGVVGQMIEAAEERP

This assay addresses purified fragment of human Calnexin containing Amino acid 1-481 fused to human FC region (FC-CNX) (human) (UniProt P27824). As to the kind of experiment: ELISA, coat CNX-Fc (figure title), antibody 1 ug/ml, HRP secondary, OD450 normalised to BSA. (In general: In an ELISA, binding on a coated surface is turned into a signal by an enzyme label.)
In turn, CNX ab10286 (antibody) returned an OD450 (Normalised to BSA) of 4.79.
For CRT ab92516 (antibody) the value was 0.9; for ctrl hIgG (antibody), 0.51.
